Reference: PMC8486122, “Structural basis for antibody binding to adenylate cyclase toxin reveals RTX linkers as neutralization-sensitive epitopes” (PLoS Pathogens, 2021)

Assays:
[1] = molecular target: T1, RTX751 (ACT residues 751–1706) (Bordetella pertussis (strain Tohama I / …, UniProt P0DKX7)); assay: SPR; conditions: both partners purified
T1 construct: also called full RTX domain; full RTX

[2] = molecular target: T2, 123cap (cap fusion variant F5: RTX blocks I–III fused to the block V capping structure) (Bordetella pertussis (strain not named …, stabilised)); assay: SPR; conditions: both partners purified
T2 construct: source: E. coli BL21 DE3, purified (Ni-NTA, SEC); not shown: 8xHis, N-terminal, kept
T2 chain: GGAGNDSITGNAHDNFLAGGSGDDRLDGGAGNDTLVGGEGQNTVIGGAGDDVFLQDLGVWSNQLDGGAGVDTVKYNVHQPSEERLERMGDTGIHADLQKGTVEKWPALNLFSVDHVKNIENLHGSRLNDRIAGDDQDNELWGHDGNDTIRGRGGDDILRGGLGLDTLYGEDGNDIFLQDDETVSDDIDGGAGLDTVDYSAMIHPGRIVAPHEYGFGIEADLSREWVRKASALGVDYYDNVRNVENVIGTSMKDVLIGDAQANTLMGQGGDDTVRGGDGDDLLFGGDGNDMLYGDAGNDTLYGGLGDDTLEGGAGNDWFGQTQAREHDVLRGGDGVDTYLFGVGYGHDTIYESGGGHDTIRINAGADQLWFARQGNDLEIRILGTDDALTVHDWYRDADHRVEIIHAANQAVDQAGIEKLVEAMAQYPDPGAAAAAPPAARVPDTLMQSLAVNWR

B1: M1H5 Fab (Fab, V domains shown)
VH: EVNLVESGGDLVKPGGSLKLSCAASGFTFSSYGMSWVRQTPDKRLEWVATISSGGTYTYYPDSVKGRFTISRDNAKNTLYLQMSSLKSEDTAMYYCAREIMRGGGYYFDYWSQGTTLTVSS
VL: DIQMIQSTSSLSASLGDRVTISCRASQDISNYLNWYQQKPDGTVKLLIYYTSRLHSGVPSRFSGSGSGTDYSLTISNLEQEDIATYFCQQGNTLPYTFGGGTKLEIK
[1]
  Kd: 0.8 nM
[2]
  Kd: 0.7 nM

B2: M2B10 Fab (Fab, V domains shown)
VH: EVQLQQSGAELVRPGTSVKVSCKASGYAFTNYLIEWVKQRPGQGLEWIGVINPGIGNTNYNEKFKGKATLTADKSSSTVYMQLSSLTSDDSAVYFCARGLNYGSSQHWYFDVWGAGTSVTVSS
VL: IVMTQSPAILSASLGERVTMTCTASSSVSSSYLHWYQQKPGSSPKLWIYSTSNLASGVPARFSGSGSGTSYSLTISSMEAEDAATYYCHQYHRSPPTFGAGTKLEIK
[1]
  Kd: 0.75 nM
[2]
  Kd: 0.6 nM
